Experimental data: US20090017017A1 (SYMPHOGEN A S, published 2009)

T1: Rhesus D antigen (human, UniProt Q02161 2-417)
T1 construct: whole, on cells; Presented on RhD(+) erythrocytes; also called RhD; RhD antigen
T1 sequence (looked up): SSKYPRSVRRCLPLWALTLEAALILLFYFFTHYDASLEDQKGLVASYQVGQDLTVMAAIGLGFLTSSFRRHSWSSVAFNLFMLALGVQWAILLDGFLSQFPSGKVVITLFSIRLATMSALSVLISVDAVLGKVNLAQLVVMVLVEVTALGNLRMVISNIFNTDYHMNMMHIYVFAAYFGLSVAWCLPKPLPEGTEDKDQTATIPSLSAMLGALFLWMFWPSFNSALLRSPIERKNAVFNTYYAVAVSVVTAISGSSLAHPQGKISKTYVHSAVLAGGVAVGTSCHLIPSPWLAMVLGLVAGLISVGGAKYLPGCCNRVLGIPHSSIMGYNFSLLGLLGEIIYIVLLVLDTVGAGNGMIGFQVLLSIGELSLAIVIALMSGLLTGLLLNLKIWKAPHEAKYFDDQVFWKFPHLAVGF

B1: RhD189.181E07 (Fab, V domains shown)
VH: QVQLVESGGGVVQPGRSLRLSCAASGFTFSSYGMHWVRQAPGKGLEWVAVIWYDGSNKYYADSVKGRFTISRDNSKNTLYLQMNSLRAEDTAVYYCARDMVTMVRGAYRNYYYYGMDVWGKGTTVTVSS
VL: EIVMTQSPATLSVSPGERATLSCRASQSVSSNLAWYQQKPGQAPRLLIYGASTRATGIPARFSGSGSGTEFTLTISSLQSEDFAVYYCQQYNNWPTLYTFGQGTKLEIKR
notes: Tested as Fab in E. coli periplasmic extract (VH on human gamma 1 CH1, vector Em351)
B2: RhD324.231F07 (Fab, V domains shown)
VH: EVQLVESGGGLVQPGRSLRLSCVASGFTFSSYWMHWVRQVPGKGLVWVSRINVDGKSTSYADSVKGRFTISRDNAKNTLYLQMNSLRAEDTAVYYCARDPRRFLEWARYGMDVWGRGTTVTVSS
VL: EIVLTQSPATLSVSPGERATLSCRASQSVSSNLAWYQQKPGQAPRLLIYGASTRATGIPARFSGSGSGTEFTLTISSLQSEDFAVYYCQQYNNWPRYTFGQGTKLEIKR
notes: as for B1
B3: RhD163.119A02 (Fab, V domains shown)
VH: QVQLQESGPGLVKPSETLSLTCTVSGGSISSYYWSWVRQPPGKGLEWIGYIYYSGSTNYNPSLKSRVTIALDTSKNQFSLKLRSVTAADTAVYFCTRDWRQYGSAIRGSRYYYGMDVWGQGTTVTVSS
VL: EIVLTQSPGTLSLSPGERATLSCRASQNPRRNFLAWYQQKPGQAPRLLIYAASTRATGIPDRFSGSGSGTDFTLTIDRLEPEDSAVYYCQVYGSSPLYTFGQGTKVEMKR
notes: as for B1
B4: RhD162.119G12 (Fab, V domains shown)
VH: QVQLVESGGGLVKPGGSLRLSCAASGFGFSAYSMNWVRQAPGKGLEWVSSITSTTTYYADSVKGRFSISRDNAKSTLYLRMNSLRAEDTAVYYCVREIAFRGSTYSRWSYYFDFWGQGTLVTVSS
VL: DIQLTQSPSSVSASVGDSVTITCRASQAVSGWVAWYQQKPGKAPKLLIFGLSNLEDGVPSRFSGSGSATDFTLTITGLQPEDLATYYCLQANRFPLSFGGGTRVEIKR
notes: as for B1

molecular target: T1, Rhesus D antigen; assay: Fab screening on RBC (agglutination, FACS)
Protocol: After each round of panning single colonies were picked for analysis of their binding properties to red blood cells in agglutination assays. Briefly, single colonies were inoculated into 2×YT/100 μg/mL carbenicillin/1% glucose and shaken overnight at 37° C. The next day, DeepWell plates were inoculated using 900 μl 2×YT/100 μg/mL carbenicillin/0.1% glucose and 10 μl overnight culture. The plates were shaken for two hours at 37° C., before Fab induction was performed with addition of 300 μl 2×YT/100 μg/mL carbenicillin/0.25 mM IPTG per well. The plate was shaken overnight at 30° C. The following day, the bacteria were pelleted by centrifugation (3200×g, 4° C., 10 minutes), and re-suspended in 100 μl of 0.8 M NaCl, 0.2×PBS, 8 mM EDTA, and incubated for 15 minutes on ice in order to perform a periplasmic extraction of the Fab fragments. The plate was transferred to −20° C. and finally the suspension was thawed and centrifugation was performed for 10 minutes at 4° C. and 3200×g. The periplasmic extract was used in ELISA assays for analysis of Fab content and in agglutination assays to evaluate the binding potential of the individual Fab fragments.
The agglutination assay was performed as follows: RhD(−) and RhD(+) RBC were mixed in a 1:1 ratio, and washed 3 times in PBS. After the final wash, the cell mix was re-suspended in 1% BSA in PBS at a density of 10% cells, 50 μl was added to each well of a 96-plate. Periplasmic extracts were added to the wells. As a positive control Rhesogamma P immunoglobulin (Aventis) was used according to the manufacturer's instructions. The plates were incubated for one hour at room temperature with gentle shaking. The cells were washed three times with PBS, before the secondary antibody was added (goat anti-human Fab/FITC conjugate, Sigma F5512) in a 1:100 dilution. The plates were left for agglutination for one hour at room temperature without shaking. Fab fragments positive in the agglutination assay was determined by visual inspection, and recorded by taking a picture. Quantization of the binding activity of the Fab fragments was performed by FACS analysis of the agglutination samples.

binding result	Binder
binds	B1
binds	B2
binds	B3
binds	B4
